B1: Hammerhead Ribozyme (parent)
chain: ACCGGAUGUGCUUUCCGGUCUGAUGAGUCCGUGAGGACGAAACAG

In this data set the parent is B1. Kind of data set: self-cleavage, relative activity (ratio to wild type); higher = more cleavage; co-transcriptional.
Turning to C2A G39C, the self-cleavage was 0.305.
For C2A G39U the value was 0.327; for C2A G39A, 0.319.
As to A1U A6G, the self-cleavage is 0.459.
As to A1U A6U, the self-cleavage came to 0.46.
Under A1U A6C stands 0.363; under C2A A23U, 0.33; under C2A A23G, 0.334.
For C2A A23C, the self-cleavage was 0.297.
As to A1G U9A, the self-cleavage was determined as 1.83.
Under A1G U9G stands 1.58.
In the case of A1G U9C, the self-cleavage is 1.8.
A1G G18U: the self-cleavage was 0.894.
For A1G G18C, the self-cleavage was determined as 0.58.
As for A1G G18A, the self-cleavage turned out to be 0.906.
Under A1U G22A stands 0.372.
For A1U G22U, the self-cleavage amounted to 0.33.
With A1U G22C, the self-cleavage amounted to 0.22.
A1U U9C: the self-cleavage is 0.656.
As to A1U U9A, the self-cleavage was determined as 0.565.
As for A1U U9G, the self-cleavage was determined as 0.348.
For A1U G39C the value was 0.356; for A1U G39A, 0.349; for A1U G39U, 0.347.
As to C2A A44U, the self-cleavage worked out at 0.375.
With C2A A44G, the self-cleavage worked out at 0.989.
For C2A A44C the value was 0.425; for A1U C3U, 0.433; for A1U C3G, 0.418.
Regarding A1U C3A, the self-cleavage is 0.767.
As to A1G U24A, the self-cleavage turned out to be 1.78.
As to A1G U24C, the self-cleavage was determined as 1.6.
As for A1G U24G, the self-cleavage was determined as 1.68.
Consider A1G G36A, for which the self-cleavage is 1.21.
As to A1G G36U, the self-cleavage was 1.02.
A1G G36C: the self-cleavage came out at 0.654.
Take A1G G27A: the self-cleavage is 1.07.
On to A1G G27C, for which the self-cleavage amounted to 0.879.
Turning to A1G G27U, the self-cleavage was 0.585.
For the variant A1U C30A, the self-cleavage came out at 0.487.
Regarding A1U C30G, the self-cleavage came to 0.414.
In the case of A1U C30U, the self-cleavage worked out at 0.897.
Under C2A G4C stands 0.346.
Take C2A G4A: the self-cleavage came out at 0.322.
Regarding C2A G4U, the self-cleavage was 1.77.
For A1U U14A, the self-cleavage was 0.353.
Turning to A1U U14C, the self-cleavage worked out at 0.531.
Take A1U U14G: the self-cleavage worked out at 0.692.
For A1G G33U the value was 1.7.
As for A1G G33A, the self-cleavage came to 1.53.
With A1G G33C, the self-cleavage stood at 1.67.
C2A A26U: the self-cleavage came to 0.374.
As for C2A A26G, the self-cleavage was determined as 0.293.
For C2A A26C, the self-cleavage stood at 0.328.
Consider A1G C29A, for which the self-cleavage is 0.835.
Regarding A1G C29G, the self-cleavage amounted to 1.02.
As to A1G C29U, the self-cleavage turned out to be 1.52.
For C2A A6C the value was 0.306; for C2A A6U, 0.331.
Take C2A A6G: the self-cleavage turned out to be 0.426.
Consider A1U G4A, for which the self-cleavage was 0.342.
Under A1U G4U stands 0.309; under A1U G4C, 0.353.
As for A1U G5U, the self-cleavage was 0.354.
For A1U G5A the value was 0.491; for A1U G5C, 0.287.
Turning to C2A G25A, the self-cleavage came out at 0.31.
For C2A G25U the value was 0.323; for C2A G25C, 0.359; for A1U G25C, 0.357.
For A1U G25U the value was 0.435; for A1U G25A, 0.32; for C2A C30U, 0.847.
In the case of C2A C30G, the self-cleavage worked out at 0.333.
For C2A C30A the value was 0.473; for C2A G33A, 0.958; for C2A G33C, 0.888.
Under C2A G33U stands 0.858.
Consider A1U G17U, for which the self-cleavage amounted to 0.357.
With A1U G17A, the self-cleavage amounted to 0.421.
Under A1U G17C stands 0.393; under A1G U32G, 1.45; under A1G U32A, 1.68.
Consider A1G U32C, for which the self-cleavage worked out at 1.48.
Take A1U G18C: the self-cleavage was determined as 0.39.
Under A1U G18A stands 0.477; under A1U G18U, 0.475; under A1U A34C, 0.492.
With A1U A34U, the self-cleavage was found to be 0.452.
Under A1U A34G stands 0.596; under A1G G39C, 0.394.
On to A1G G39A, for which the self-cleavage was found to be 0.384.
With A1G G39U, the self-cleavage was 0.428.
On to A1U A23U, for which the self-cleavage is 0.306.
With A1U A23C, the self-cleavage was found to be 0.385.
Turning to A1U A23G, the self-cleavage came to 0.383.
As for C2A A40G, the self-cleavage was 0.324.
C2A A40C: the self-cleavage stood at 0.353.
As for C2A A40U, the self-cleavage is 0.35.
For A1U G10C, the self-cleavage came out at 0.6.
With A1U G10U, the self-cleavage amounted to 0.997.
As for A1U G10A, the self-cleavage was found to be 0.815.
Consider A1U C2G, for which the self-cleavage is 1.92.
For the variant A1U C2A, the self-cleavage turned out to be 0.672.
With A1U C2U, the self-cleavage came out at 0.598.
Under A1U G31A stands 1.03; under A1U G31U, 0.748; under A1U G31C, 0.621.
In the case of A1G C38A, the self-cleavage turned out to be 0.973.
Take A1G C38U: the self-cleavage was 1.49.
On to A1G C38G, for which the self-cleavage amounted to 0.865.
Consider A1G C30A, for which the self-cleavage was 1.3.
Under A1G C30U stands 1.84.
A1G C30G: the self-cleavage worked out at 1.26.
Under C2A C16U stands 0.554; under C2A C16G, 0.363.
With C2A C16A, the self-cleavage stood at 0.365.
For A1G U12G, the self-cleavage stood at 1.91.
A1G U12C: the self-cleavage came out at 1.71.
For the variant A1G U12A, the self-cleavage is 1.63.
For C2A U13G the value was 0.86; for C2A U13C, 1.05; for C2A U13A, 1.08.
With A1G G25A, the self-cleavage was found to be 0.43.
On to A1G G25U, for which the self-cleavage stood at 0.353.
As for A1G G25C, the self-cleavage turned out to be 0.319.
For A1U G8U the value was 0.728.
A1U G8A: the self-cleavage worked out at 0.687.
On to A1U G8C, for which the self-cleavage came out at 0.599.
Consider C2A U7C, for which the self-cleavage was found to be 0.382.
For C2A U7A, the self-cleavage was 0.457.
C2A U7G: the self-cleavage was 0.518.
For A1G U13C, the self-cleavage was found to be 1.87.
A1G U13A: the self-cleavage worked out at 1.96.
A1G U13G: the self-cleavage is 1.97.
Regarding A1U U28G, the self-cleavage came out at 0.436.
On to A1U U28A, for which the self-cleavage was 0.3.
As to A1U U28C, the self-cleavage was 0.5.
Regarding C2A G5A, the self-cleavage worked out at 0.37.
For the variant C2A G5C, the self-cleavage was 0.288.
Consider C2A G5U, for which the self-cleavage worked out at 0.319.
C2A C20G: the self-cleavage amounted to 0.288.
As to C2A C20A, the self-cleavage was 0.292.
Take C2A C20U: the self-cleavage was 0.372.
A1U G33A: the self-cleavage amounted to 0.651.
Take A1U G33C: the self-cleavage was 0.705.
For A1U G33U, the self-cleavage came out at 0.972.
For A1U U21G, the self-cleavage was determined as 0.303.
For A1U U21C, the self-cleavage worked out at 0.379.
Take A1U U21A: the self-cleavage worked out at 0.614.
In the case of C2A G36A, the self-cleavage amounted to 0.353.
Consider C2A G36C, for which the self-cleavage was determined as 0.307.
As to C2A G36U, the self-cleavage was 0.341.
For A1U A40G the value was 0.383; for A1U A40C, 0.387.
For A1U A40U the value was 0.349.
For A1G G5C the value was 0.628; for A1G G5U, 0.805; for A1G G5A, 1.04.
Regarding A1U C11A, the self-cleavage worked out at 1.01.
As to A1U C11G, the self-cleavage was determined as 0.646.
As for A1U C11U, the self-cleavage was found to be 0.423.
For A1G G45C the value was 1.01.
With A1G G45A, the self-cleavage was found to be 1.11.
For A1G G45U the value was 1.13.
Under A1U U13G stands 0.812.
Under A1U U13C stands 0.94.
